Assay results published in article PMC9917425 (2023).

Target: laminin-111 (Mus musculus, UniProt P19137)
Assay: solid-phase binding assay

Kd | Binder
1.9 nM | α-dystroglycan (α-DG) (protein) HWPSEPSEAVRDWKNQLEASMHSVLSDFQEAVPTVVGIPDGTAVVGRSFRVSIPTDLIASSGEIIKVSAAGKEALPSWLHWDPHSHILEGLPLDTDKGVHYISVSAARLGANGSHVPQTSSVFSIEVYPEDHNEPQSVRAASSDPGEVVPSACAADEPVTVLMVILDADLTKMTPKQRIDLLNRMQSFSEVELHNMKLVPVVNNRLFDMSAFMAGPGNAKKVVENGALLSWKLGCSLNQNSVPDIRGVETPAREGAMSAQLGYPVVGWHIANKKPTLPKRLRRQIHATPTPVTAIGPPTTAIQEPPSRIVPTPTSPAIAPPTETMAPPVRDPVPGKPTVTIRTRGAIIQTPTLGPIQPTRVSEAGTTVPGQIRPTLTIPGYVEPTAVITPPTTTTKKPRVSTPKPATPSTDSSTTTTRRPTKKPRTPRPVPRVTTKAPITRLETASPPTRIRTTTSGVPRGGEPNQRPELKNHIDRVDAWVGTYFEVKIPSDTFYDNEDTTTDKLKLTLKLREQQLVGEKSWVQFNSNSQLMYGLPDSSHVGKHEYFMHATDKGGLSAVDAFEIHVHKRPQGDKAPARFKARLAGDPAPVVNDIHKKIALVKKLAFAFGDRNCSSITLQNITRG
0.966 nM | α-dystroglycan (α-DG) (protein, matriglycan O-glycosylation (full-length)) HWPSEPSEAVRDWKNQLEASMHSVLSDFQEAVPTVVGIPDGTAVVGRSFRVSIPTDLIASSGEIIKVSAAGKEALPSWLHWDPHSHILEGLPLDTDKGVHYISVSAARLGANGSHVPQTSSVFSIEVYPEDHNEPQSVRAASSDPGEVVPSACAADEPVTVLTVILDADLTKMTPKQRIDLLNRMQSFSEVELHNMKLVPVVNNRLFDMSAFMAGPGNAKKVVENGALLSWKLGCSLNQNSVPDIRGVETPAREGAMSAQLGYPVVGWHIANKKPTLPKRLRRQIHATPTPVTAIGPPTTAIQEPPSRIVPTPTSPAIAPPTETMAPPVRDPVPGKPTVTIRTRGAIIQTPTLGPIQPTRVSEAGTTVPGQIRPTLTIPGYVEPTAVITPPTTTTKKPRVSTPKPATPSTDSSTTTTRRPTKKPRTPRPVPRVTTKAPITRLETASPPTRIRTTTSGVPRGGEPNQRPELKNHIDRVDAWVGTYFEVKIPSDTFYDNEDTTTDKLKLTLKLREQQLVGEKSWVQFNSNSQLMYGLPDSSHVGKHEYFMHATDKGGLSAVDAFEIHVHKRPQGDKAPARFKARLAGDPAPVVNDIHKKIALVKKLAFAFGDRNCSSITLQNITRG
2.32 nM | α-dystroglycan lacking N-terminal domain (M-α-DGN KO) 317-653 (protein, short non-elongated matriglycan O-glycosylation) TPVTAIGPPTTAIQEPPSRIVPTPTSPAIAPPTETMAPPVRDPVPGKPTVTIRTRGAIIQTPTLGPIQPTRVSEAGTTVPGQIRPTLTIPGYVEPTAVITPPTTTTKKPRVSTPKPATPSTDSSTTTTRRPTKKPRTPRPVPRVTTKAPITRLETASPPTRIRTTTSGVPRGGEPNQRPELKNHIDRVDAWVGTYFEVKIPSDTFYDNEDTTTDKLKLTLKLREQQLVGEKSWVQFNSNSQLMYGLPDSSHVGKHEYFMHATDKGGLSAVDAFEIHVHKRPQGDKAPARFKARLAGDPAPVVNDIHKKIALVKKLAFAFGDRNCSSITLQNITRGSI
